Results reported in article PMC8364233.

Key:
[1] = target: MBP-LjNIN (551–878) (Lotus japonicus); assay: SEC-MALS
[2] = target: MBP-LjNLP4 (564–976) (Lotus japonicus); assay: SEC-MALS
MBP-LjNLP4 (564-976) = MBP-LjNLP4 (564-976) (Lotus japonicus, UniProt A0A2Z5V8A6 564-976); assay: EMSA
MBP-LjNIN (551-878) = MBP-LjNIN (551-878) (Lotus japonicus, UniProt Q9S7B1 551-878); assay: EMSA
[3] = target: MBP-LjNLP4 (564-976);Trx-His-LjNIN (551-878) (Lotus japonicus;Lotus japonicus, UniProt A0A2Z5V8A6;Q9S7B1 564-976;551-878, |); assay: EMSA

Row | Molecule | stoichiometry N [1] | stoichiometry N [2] | binding result (MBP-LjNLP4 (564-976)) | binding result (MBP-LjNIN (551-878)) | binding result [3]
1 | MBP-LjNIN (551–878) (domain or fragment) | 2 | – | – | – | –
2 | MBP-LjNLP4 (564–976) (domain or fragment) | – | 2 | – | – | –
3 | CLE-RS2pro (dsDNA) DNA 1: TGAGTTCTGACCCTTAAGCCTTGGAAAGGACAGTCATG DNA 2: CATGACTGTCCTTTCCAAGGCTTAAGGGTCAGAACTCA | – | – | binds | binds | –
4 | LjNIR1pro (dsDNA) DNA 1: CAAACACGACCCTTTGTCACAACCAAAGGTCCATTGTA DNA 2: TACAATGGACCTTTGGTTGTGACAAAGGGTCGTGTTTG | – | – | binds | binds | –
5 | LjNF-YBpro (dsDNA) DNA 1: TTTACTTGTATCTTTAGAGCTTTCCAAGGGATATTTCA DNA 2: TGAAATATCCCTTGGAAAGCTCTAAAGATACAAGTAAA | – | – | no binding | binds | binds
